Assay results reported in patent US20240076386A1 (Pfizer, published 2024).
Numbering of substitutions follows the chain as printed.

T1: human E-selectin, cell-surface expressed (human, UniProt P16581 22-610)
T1 sequence: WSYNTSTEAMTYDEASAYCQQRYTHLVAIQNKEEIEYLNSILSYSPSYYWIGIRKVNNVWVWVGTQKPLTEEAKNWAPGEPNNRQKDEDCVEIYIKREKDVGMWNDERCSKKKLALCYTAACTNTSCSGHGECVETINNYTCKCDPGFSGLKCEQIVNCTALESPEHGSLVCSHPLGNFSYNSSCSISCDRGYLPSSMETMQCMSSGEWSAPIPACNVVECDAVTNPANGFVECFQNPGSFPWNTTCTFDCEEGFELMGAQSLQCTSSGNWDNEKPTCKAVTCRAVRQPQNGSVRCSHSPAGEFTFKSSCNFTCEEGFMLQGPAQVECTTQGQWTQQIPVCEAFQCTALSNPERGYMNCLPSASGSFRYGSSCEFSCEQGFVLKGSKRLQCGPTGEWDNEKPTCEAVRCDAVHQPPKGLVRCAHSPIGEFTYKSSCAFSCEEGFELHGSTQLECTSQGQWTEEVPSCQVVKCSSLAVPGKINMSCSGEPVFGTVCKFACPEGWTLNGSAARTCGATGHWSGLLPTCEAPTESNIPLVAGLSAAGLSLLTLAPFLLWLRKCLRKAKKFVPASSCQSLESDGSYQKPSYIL

T2: cynomolgus monkey E-selectin, cell-surface expressed (cynomolgus monkey, UniProt P16581 22-610 (human entry))
T2 construct: also called CHO-cynomolgus monkey E-selectin cells; cynomolgus monkey CHO-E
T2 chain: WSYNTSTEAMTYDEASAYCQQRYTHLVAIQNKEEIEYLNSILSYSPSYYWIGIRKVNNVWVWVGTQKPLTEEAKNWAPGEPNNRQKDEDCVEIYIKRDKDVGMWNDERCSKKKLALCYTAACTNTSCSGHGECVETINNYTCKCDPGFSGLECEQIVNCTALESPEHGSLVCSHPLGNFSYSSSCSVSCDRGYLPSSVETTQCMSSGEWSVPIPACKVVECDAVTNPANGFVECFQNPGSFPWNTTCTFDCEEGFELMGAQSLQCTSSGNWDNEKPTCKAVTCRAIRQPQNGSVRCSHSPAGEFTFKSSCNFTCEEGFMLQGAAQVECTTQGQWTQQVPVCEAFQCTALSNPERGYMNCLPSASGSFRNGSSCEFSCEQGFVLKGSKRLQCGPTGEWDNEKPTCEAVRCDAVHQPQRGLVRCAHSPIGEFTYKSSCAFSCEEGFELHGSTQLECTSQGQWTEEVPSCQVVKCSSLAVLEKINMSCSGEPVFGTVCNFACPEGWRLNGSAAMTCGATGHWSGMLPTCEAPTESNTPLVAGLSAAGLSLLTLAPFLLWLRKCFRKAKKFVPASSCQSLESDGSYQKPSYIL

B1: humanized anti-E-selectin antibody 0841 (antibody, human IgG1, kappa, V domains shown)
VH: EVQLVESGGGLVQPGGSLRLSCAASGYNIRSSYMHWVRQAPGKGLEWVARIDPANGNTIYAEKFKIRFTISADNAKNSAYLQMNSLRAEDTAVYYCAMDLYSTSEYWGQGTLVTVSS
VL: DIQMTQSPSSLSASVGDRVTITCKTSQNINRYLNWYQQKPGKAPKLLIYNANSLQTGVPSRFSGSGSGTDFTLTISSLQPEDFATYFCLQDNSWPLTFGQGTKVEIKR
notes: effector-null human IgG1, kappa
B2: anti-E-selectin antibody 0164 chimera (antibody, human IgG1, kappa, V domains shown)
VH: EVQLQQSGAEFGKPGTSVKLSCKVSGYNIRSSYMHWVNQRPGKGLEWIGRIDPANGNTIYAEKFKIKAILTADSSSNTAYMQLSQLKSDDTAIYFCAMDLYSTSEYWGQGVMVTVSS
VL: B1 VL with S10F, T22N, P40L, K42E, V58I, G64A, S76N, F83V, Q100S, V104L
notes: rat VH/VL on effector-null human IgG1 and human kappa
B3: optimized anti-E-selectin antibody 1282 (antibody, human IgG1, kappa, V domains shown)
VH: B1 VH with N28A, S32A, A61V, E62D, K63S, F64V, K65E, I66G
VL: B1 VL with N30E, N50A, N52S, T56S, S93A
notes: as for B1
B4: optimized anti-E-selectin antibody 1444 (antibody, human IgG1, kappa, V domains shown)
VH: B1 VH with N28A, S32A, A61V, E62D, K63S, F64V, K65T, I66G
VL: B1 VL with N30E, N50A, N52S, T56S, S93A
notes: as for B1
B5: optimized anti-E-selectin antibody 1448 (antibody, human IgG1, kappa, V domains shown)
VH: B1 VH with N28A, S32A, A61V, E62D, K63S, F64V, I66E
VL: B1 VL with N30E, N50A, N52S, T56S, S93A
notes: as for B1
B6: optimized anti-E-selectin antibody 1284 (antibody, human IgG1, kappa, V domains shown)
VH: B1 VH with N28A, S32A, A61V, K63S, F64V, K65E, I66G
VL: B1 VL with N30E, N50A, N52S, T56S, S93A
notes: as for B1

Key:
[1] = target: T1, human E-selectin, cell-surface expressed; test: cell-based or functional assay
[2] = target: T1, human E-selectin, cell-surface expressed; test: flow cytometry, CHO cells
Method: (§1) Cells were maintained in growth medium at 37° C., 5% CO₂ and 95% air in a humidified incubator. Methotrexate or Zeocin were removed from the medium prior to culture for experiments. CHO-E selectin cells were detached from T-150 flasks using citric saline (135 mM KCl, 15 mM sodium citrate) and immediately re-calcified with the addition of CaCl₂) to the detached cells to a final concentration of 1 mM. Growth media was immediately added to the detached cells, then centrifuged at 300×g for 5 minutes at room temperature to pellet the cells. Cells were plated into 96-well round-bottom plates in cold CHO buffer consisting of phosphate buffered saline (PBS), pH 7.4 containing bovine serum albumin (BSA; Sigma-Aldrich) at final concentration of 1%, calcium chloride at final concentration of 1 mM, and sodium azide at a final concentration of 0.1%, for 5 minutes on wet ice. After incubation, the cells were centrifuged at 300×g for 2 minutes at 4° C. to remove the buffer.
(§2) After incubation, the antibodies were removed and the cells were washed three times by centrifugation at 300×g for 1 minute at 4° C. and resuspended in cold CHO buffer. The washed cells were resuspended and incubated for 30 minutes on wet ice with 100 μL of 1:1000 dilution of APC-conjugated AffiniPure F(ab′)₂ Fragment Goat Anti-human IgG, Fcγ (Jackson Immunoresearch). The cells were washed three or four times prior to resuspension in CHO buffer for flow cytometric analysis. A Becton Dickinson LSRFortessa instrument using 640 nanometer laser line was used to acquire cell fluorescence data. Geometric mean fluorescence of cells was analyzed by FlowJo software package (FlowJo, LLC) and plotted against antibody concentration. The estimated EC₅₀ values were calculated using nonlinear regression analysis in the GraphPad Prism suite.

[3] = target: T2, cynomolgus monkey E-selectin, …; test: flow cytometry, CHO cells
Method: as §1, §2

[4] = target: T1, human E-selectin, cell-surface expressed; test: competition ELISA on CHO cells vs sialyl Lewis ligand-PAA-biotin/SA-HRP
Method: (§3) In a static ligand cellular adhesion assay, horse radish peroxidase (HRP) conjugated E-selectin ligand and E-selectin antibodies compete for binding to human or cynomolgus E-selectin expressed on Chinese hamster ovary (CHO) cells. The ability of anti-E-selectin antibodies to neutralize the ligand binding was assessed in a static neutralization assay using a competition enzyme-linked immunosorbent assay (ELISA) to evaluate the neutralization of the sialyl Lewis antigen to Chinese hamster ovary cells (CHO) engineered to express human or cynomolgus monkey E-selectin.
(§4) CHO cells expressing E-selectin were seeded at 12,500 cells per well into a 96 well tissue culture plate and incubated at 37° C., 5% CO₂ for 48 hours to form a confluent monolayer. Plates were subsequently washed twice with 200 μL of calcium magnesium free PBS. Anti-E-selectin antibodies, or an IgG1 isotype control, were added to the assay in the presence of a small synthetic conjugate of biotinylated, sialyl Lewis A polyacrylamide (Carbosynth LLC, OS45446) or sialyl Lewis X polyacrylamide (Glycotech, 01-045) with a streptavidin/horseradish peroxidase (100 μL total) and incubated at 37° C., 5% CO₂ for 2 hours. Plates were then washed twice with 200 μL of calcium magnesium free PBS. Following the incubation, the cells were washed twice with 200 μL of wash buffer containing 2 mM calcium chloride (50 mM TRIS [trisaminomethane], 150 mM sodium chloride; 0.05% polysorbate 20, pH 7.4; 2 mM of calcium chloride). Signal was developed by adding 100 μL of 1-Step Ultra TMB substrate (Thermo Scientific, 34028) and incubating for 30 minutes at room temperature. Reactions were stopped using 2 M of sulfuric acid and absorbance was read at 450 nm (Spectramax M5e). Data was analyzed and graphed using GraphPad Prism software (Version 8.0.2).

[5] = target: T2, cynomolgus monkey E-selectin, …; test: as above
Method: as §3, §4

[6] = target: T1, human E-selectin, cell-surface expressed; test: cell-based or functional assay; remark: listed apart in the source

Row | Binder | neutralization under physiological flow, HL-60 cell adhesion to CHO-human E-selectin cells IC50 (nM) [1] [nM] | EC50 [2] [nM] | EC50 [3] [nM] | IC50 [4] [nM] | IC50 [5] [nM] | static neutralization of HL-60 cell adhesion, CHO-human E-selectin cells-IC50 [6] [nM]
1 | B1 | 4.17 | 1.62 | 1.54 | 3.81 | 1.74 | 
2 | B2 | 3.73 | 1.39 | 1.73 | 5.17 | 2 | 4.4
3 | B3 |  |  |  |  |  | 3.4
4 | B4 |  |  |  |  |  | 4.7
5 | B5 |  |  |  |  |  | 6.2
6 | B6 |  |  |  |  |  | 4.4
